Measured values: patent US11116820B2, “Treatment of hyperinsulinemic hypoglycemia with exendin-4 derivatives” (priority 2016, dated 2021)

Tests used:
[1] = target: T1, mouse GLP-1 receptor (Mus musculus, UniProt O35659); assay: cAMP functional assay (HTRF), agonist mode, in βTC6 cells; format: cell-based; details: peptides dissolved at 10 mM in PBS, 10 minutes at room temperature
T1 construct: cells that endogenously express the mouse GLP-1 receptor; endogenous in cells; host or cells: βTC6 cells (mouse)
T1 sequence (O35659 22-463): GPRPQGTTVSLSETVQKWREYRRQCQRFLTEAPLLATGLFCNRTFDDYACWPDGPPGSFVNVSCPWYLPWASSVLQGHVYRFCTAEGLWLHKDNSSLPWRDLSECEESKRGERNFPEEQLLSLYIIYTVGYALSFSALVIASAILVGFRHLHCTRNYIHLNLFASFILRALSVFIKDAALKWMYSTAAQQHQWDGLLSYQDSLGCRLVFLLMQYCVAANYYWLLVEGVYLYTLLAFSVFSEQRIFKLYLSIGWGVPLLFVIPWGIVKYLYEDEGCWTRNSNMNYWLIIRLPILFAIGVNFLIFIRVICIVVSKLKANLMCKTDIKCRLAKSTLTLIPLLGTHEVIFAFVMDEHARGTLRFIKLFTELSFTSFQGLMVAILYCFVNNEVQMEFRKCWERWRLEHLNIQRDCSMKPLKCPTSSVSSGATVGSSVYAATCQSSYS
Description: The agonistic and antagonistic effects of each of the four peptides on the receptor GLP-1 was tested in βTC6 cells, which are cells that endogenously express the mouse GLP-1 receptor, in a cAMP functional assay. […] Following the incubation period, the resulting intracellular level of cAMP was measured by homogenous time resolved fluorescence (HTRF).

[2] = target: T1, mouse GLP-1 receptor; assay: cAMP functional assay (HTRF), antagonist mode, βTC6 cells stimulated with 0.3 nM GLP-1 (7-37); format: cell-based; details: 10 minutes at room temperature
Description: The agonistic and antagonistic effects of each of the four peptides on the receptor GLP-1 was tested in βTC6 cells, which are cells that endogenously express the mouse GLP-1 receptor, in a cAMP functional assay.
Following the incubation period, the resulting intracellular level of cAMP was measured by HTRF.

Substance: pegylated exendin(9-39): pegylated form of exendin(9-39), tested as comparator peptide
- agonistic activity on GLP-1 receptor (intracellular cAMP) [1]: None of the four peptides exhibited agonistic activity
- antagonistic activity on GLP-1 receptor, overall (in words) [2]: did not exhibit significant antagonistic activity
